Target: GST fused to the OCA2 N-terminal cytoplasmic domain, AA23 variant harboring the P99S mutation (human) (UniProt Q04671)
Experiment: pull-down

Sequence of UniProt Q04671 (Q04671 1-173 P99S): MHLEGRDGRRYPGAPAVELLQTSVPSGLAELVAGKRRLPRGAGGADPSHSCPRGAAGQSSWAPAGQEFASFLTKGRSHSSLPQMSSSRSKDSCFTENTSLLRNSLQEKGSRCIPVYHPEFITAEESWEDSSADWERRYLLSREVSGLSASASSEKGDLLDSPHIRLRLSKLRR

AP-3 complex from MNT-1 human melanoma cell lysate (from UniProt O14617 1-1153; O00203 1-1094; Q92572 1-193)
percent bound relative to AA23 (% relative to AA23): 30.1

— paper PMC3418312
